Biological target: HLA-A2-G9-209 complex (as used for the affinity of 9H) (human, UniProt P61769 21-119; P40967 209-217)
Assay: method not stated (data not shown)

B1: 9H scFv antibody (scFv)
scFv: EVQLLESGGGLVQPGGSLRLSCAASGFTFQYYAMSWVRQAPGKGLEWVSSINWNSGTLDYADSVKGRFTISRDNSKNTLYLQMNSLRAEDTAVYYCARYSNYGLYAMDVWGQGTLVTVSSSGGGGSGGGGSGGGGSSDIVLTQPPSASGTPGQRVTISCSGSSSNIGSNPVTWYQQLPGTAPKPLIYGDSYRPSGVPDRFSGSKSGTSASLAISGLRSEDEADYYCATWDDDVNGVIFGGGTQLTVLR
notes: also called scFv 9H; clone 9H
Q: How did the Kd turn out when B1 was run?
A: The Kd was 0.5 nM.

— patent US20100062001A1 (TECHNION RESEARCH AND DEVELOPMENT, published 2010)
